From patent US20170355773A1

Experiments:
[1] = biological target: TNFRSF25-Fc protein (UniProt Q93038); test: single point capture ELISA: scFv on anti-c-myc, biotinylated antigen, streptavidin-HRP
[2] = biological target: TNFRSF25-Fc protein (UniProt Q93038); test: capture ELISA, scFv, against the wild-type

| Binder | OD450 [1] | fold increase in ELISA signal [2] [fold] |
| --- | --- | --- |
| 66B8 (scFv mutant of W3072-z4C12) (scFv, V domains shown, not shown: small tags and cut ends) VH: EVQLVESGGGLSQPGNSLQLSCEASGFTFSNHDLNWVRQAPGKGLEWVAYISSASGLISYADAVRGRFTISRDNAKNSLFLQMNNLKSEDTAMYYCARDPPYSGLYALDFWGQGTQVTVSS VL: QPVLTQSPSASASLSGSVKLTCTLSSELSSYTIVWYQQRPDKAPKYVMYLKSDGSHSKGDGIPDRFSGSSSGAHRYLSISNVQSEDDATYFCGAGYTLANQYGWVFGSGTKVTVL | 0.4 |  |
| 42H8 (scFv mutant of W3072-z4C12) (scFv, V domains shown, not shown: small tags and cut ends) VH: EVQLVESGGGLSQPGNSLQLSCEASGFTFSNHDLNWVRQAPGKGLEWVAYISSASGLISYADAVRGRFTISRDNAKNSLFLQMNNLKSEDTAMYYCARDPPYSGLYALDFWGQGTQVTVSS VL: QPVLTQSPSASASLSGSVKLTCTLSSELSYYTIVWYQQRPDKAPKYVMYLKSDGSHSKGDGIPDRFSGSSSGAHRYLSISNVQSEDDATYFCGAGYTLAGQYGWVFGSGTKVTVL | 1.67 |  |
| 42F9 (scFv mutant of W3072-z4C12) (scFv, V domains shown, not shown: small tags and cut ends) VH: EVQLVESGGGLSQPGNSLQLSCEASGFTFSNHDLNWVRQAPGKGLEWVAYISSASGLISYADAVRGRFTISRDNAKNSLFLQMNNLKSEDTAMYYCARDPPYSGLYALDFWGQGTQVTVSS VL: QPVLTQSPSASASLSGSVKLTCTLSSELSFYTIVWYQQRPDKAPKYVMYLKSDGSHSKGDGIPDRFSGSSSGAHRYLSISNVQSEDDATYFCGAGYTLAGQYGWVFGSGTKVTVL | 2.33 |  |
| 43F11 (scFv mutant of W3072-z4C12) (scFv, V domains shown, not shown: small tags and cut ends) VH: EVQLVESGGGLSQPGNSLQLSCEASGFTFSNHDLNWVRQAPGKGLEWVAYISSASGLISYADAVRGRFTISRDNAKNSLFLQMNNLKSEDTAMYYCARDPPYSGLYALDFWGQGTQVTVSS VL: QPVLTQSPSASASLSGSVKLTCTLSSELSSFTIVWYQQRPDKAPKYVMYLKSDGSHSKGDGIPDRFSGSSSGAHRYLSISNVQSEDDATYFCGAGYTLAGQYGWVFGSGTKVTVL | 1.6 |  |

The remaining lines, values ahead:

| OD450 [1] | fold increase in ELISA signal [2] [fold] | Binder |
| --- | --- | --- |
| 1.61 |  | 27A3 (scFv mutant of W3072-z4C12) (scFv, V domains shown, not shown: small tags and cut ends) VH: EVQLVESGGGLSQPGNSLQLSCEASGFTFSNHDLNWVRQAPGKGLEWVAYISSASGLISYADAVRGRFTISRDNAKNSLFLQMNNLKSEDTAMYYCARDPPYTGLYALDFWGQGTQVTVSS VL: QPVLTQSPSASASLSGSVKLTCTLSSELSSYTIVWYQQRPDKAPKYVMYLKSDGSHSKGDGIPDRFSGSSSGAHRYLSISNVQSEDDATYFCGAGYTLAGQYGWVFGSGTKVTVL |
| 3.19 | > 10 | 42G2 (scFv mutant of W3072-z4C12) (scFv, V domains shown, not shown: small tags and cut ends) VH: EVQLVESGGGLSQPGNSLQLSCEASGFTFSNHDLNWVRQAPGKGLEWVAYISSASGLISYADAVRGRFTISRDNAKNSLFLQMNNLKSEDTAMYYCARDPPYSGLYALDFWGQGTQVTVSS VL: QPVLTQSPSASASLSGSVKLTCTLSSELSWYTIVWYQQRPDKAPKYVMYLKSDGSHSKGDGIPDRFSGSSSGAHRYLSISNVQSEDDATYFCGAGYTLAGQYGWVFGSGTKVTVL |
